# Earlier results, collected in publication PMC8771847.
# Target: Piezo1 (Mus musculus) (UniProt E2JF22)
# Chain of UniProt E2JF22 (E2JF22 whole entry): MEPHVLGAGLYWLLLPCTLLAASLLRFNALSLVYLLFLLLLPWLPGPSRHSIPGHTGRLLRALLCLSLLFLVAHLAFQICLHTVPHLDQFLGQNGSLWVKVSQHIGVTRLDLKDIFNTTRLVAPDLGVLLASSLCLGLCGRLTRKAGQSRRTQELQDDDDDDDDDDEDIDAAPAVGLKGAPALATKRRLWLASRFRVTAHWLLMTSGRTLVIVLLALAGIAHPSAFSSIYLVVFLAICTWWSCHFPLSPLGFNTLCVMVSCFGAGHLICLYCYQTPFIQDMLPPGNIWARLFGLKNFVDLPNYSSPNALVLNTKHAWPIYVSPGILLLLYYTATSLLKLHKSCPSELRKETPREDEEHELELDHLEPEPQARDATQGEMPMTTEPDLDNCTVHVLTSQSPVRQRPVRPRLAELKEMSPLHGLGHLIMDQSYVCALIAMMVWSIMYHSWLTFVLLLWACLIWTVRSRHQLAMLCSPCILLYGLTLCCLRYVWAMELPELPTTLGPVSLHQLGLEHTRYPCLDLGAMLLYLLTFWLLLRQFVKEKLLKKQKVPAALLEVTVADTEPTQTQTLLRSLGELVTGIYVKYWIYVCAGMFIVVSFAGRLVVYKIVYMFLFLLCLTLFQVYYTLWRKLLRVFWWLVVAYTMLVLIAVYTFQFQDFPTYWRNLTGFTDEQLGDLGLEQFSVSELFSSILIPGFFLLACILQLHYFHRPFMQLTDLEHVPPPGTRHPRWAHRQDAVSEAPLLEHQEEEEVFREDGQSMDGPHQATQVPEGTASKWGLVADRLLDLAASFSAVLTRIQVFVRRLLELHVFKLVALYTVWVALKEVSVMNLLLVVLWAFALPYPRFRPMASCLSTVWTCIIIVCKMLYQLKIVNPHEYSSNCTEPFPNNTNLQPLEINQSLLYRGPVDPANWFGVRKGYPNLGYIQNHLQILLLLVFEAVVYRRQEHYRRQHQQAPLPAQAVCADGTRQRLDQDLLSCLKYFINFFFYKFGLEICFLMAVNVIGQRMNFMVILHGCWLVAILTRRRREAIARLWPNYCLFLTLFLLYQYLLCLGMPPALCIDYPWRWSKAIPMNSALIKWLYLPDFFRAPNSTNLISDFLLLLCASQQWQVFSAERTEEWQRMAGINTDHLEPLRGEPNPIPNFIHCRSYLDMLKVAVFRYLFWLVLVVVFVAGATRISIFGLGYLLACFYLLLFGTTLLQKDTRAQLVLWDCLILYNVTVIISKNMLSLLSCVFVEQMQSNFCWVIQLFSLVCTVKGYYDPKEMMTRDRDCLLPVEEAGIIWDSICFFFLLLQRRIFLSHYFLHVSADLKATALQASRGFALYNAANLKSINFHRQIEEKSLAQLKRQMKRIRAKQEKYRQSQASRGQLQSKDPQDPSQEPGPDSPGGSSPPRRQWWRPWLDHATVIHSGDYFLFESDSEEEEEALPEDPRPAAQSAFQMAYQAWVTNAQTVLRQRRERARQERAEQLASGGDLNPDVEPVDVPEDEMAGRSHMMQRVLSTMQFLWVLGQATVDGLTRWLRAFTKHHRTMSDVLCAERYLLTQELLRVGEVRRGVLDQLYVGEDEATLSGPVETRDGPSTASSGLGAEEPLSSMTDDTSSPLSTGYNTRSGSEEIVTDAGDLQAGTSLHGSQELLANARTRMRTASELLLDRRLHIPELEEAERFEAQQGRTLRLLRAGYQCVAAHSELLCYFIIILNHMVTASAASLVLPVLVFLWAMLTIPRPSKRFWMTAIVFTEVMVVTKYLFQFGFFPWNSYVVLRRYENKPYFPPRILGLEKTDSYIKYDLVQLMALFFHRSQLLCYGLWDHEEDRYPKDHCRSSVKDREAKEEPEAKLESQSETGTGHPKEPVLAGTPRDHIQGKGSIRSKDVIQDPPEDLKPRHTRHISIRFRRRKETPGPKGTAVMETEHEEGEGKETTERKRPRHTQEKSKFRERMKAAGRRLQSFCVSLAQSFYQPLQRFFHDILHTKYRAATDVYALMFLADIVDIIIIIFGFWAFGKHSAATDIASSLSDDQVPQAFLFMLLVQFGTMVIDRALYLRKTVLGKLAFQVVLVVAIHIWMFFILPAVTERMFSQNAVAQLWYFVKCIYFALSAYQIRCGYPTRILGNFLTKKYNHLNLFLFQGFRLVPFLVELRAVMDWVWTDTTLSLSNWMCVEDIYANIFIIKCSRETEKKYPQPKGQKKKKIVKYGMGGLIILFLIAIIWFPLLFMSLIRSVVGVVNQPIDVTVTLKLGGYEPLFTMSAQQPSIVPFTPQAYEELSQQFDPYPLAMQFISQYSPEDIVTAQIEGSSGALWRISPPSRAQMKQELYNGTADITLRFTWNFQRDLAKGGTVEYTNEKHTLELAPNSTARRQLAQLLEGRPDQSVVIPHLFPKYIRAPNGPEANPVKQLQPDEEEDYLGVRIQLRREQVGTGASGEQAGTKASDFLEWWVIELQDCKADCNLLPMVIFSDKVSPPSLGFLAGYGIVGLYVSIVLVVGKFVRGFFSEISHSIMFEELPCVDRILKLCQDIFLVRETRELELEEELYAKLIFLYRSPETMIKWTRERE
substance,measurement,value
GsMTx-4 (from UniProt Q7YT39),Kd,2000 nM
